The target in this assay is HLA-A*02:01 (Homo sapiens, UniProt P04439, D140Y/D185E/D98H/E176V/E277Q/G131W/G231S/I119V/I121R/I166T/I218V/L300P/L318F/N151K/N90K/P208A/P217A/Q86G/Q94H/R138H/R169H/T345S). As to the kind of experiment: MHC binding assay (UV-ligand exchange, β2m ELISA). To be noted: MHC class I binding score; peptide exchange yield, binding to HLA-A*02:01, UV-ligand exchange with β2m ELISA. The source says:
Candidate peptides for T cell based therapies according to the present invention were further tested for their MHC binding capacity (affinity).
The individual peptide-MHC complexes were produced by UV-ligand exchange, where a UV-sensitive peptide is cleaved upon UV-irradiation and exchanged with the peptide of interest as analyzed. Only peptide candidates that can effectively bind and stabilize the peptide-receptive MHC molecules prevent dissociation of the MHC complexes. To determine the yield of the exchange reaction, an ELISA was performed based on the detection of the light chain (β2m) of stabilized MHC complexes. The assay was performed as generally described in Rodenko et al. (Rodenko et al., 2006).
96 well MAXISorp plates (NUNC) were coated over night with 2 ug/ml streptavidin in PBS at room temperature, washed 4× and blocked for 1h at 37° C. in 2% BSA containing blocking buffer. Refolded HLA-A*02:01/MLA-001 monomers served as standards, covering the range of 15-500 ng/ml. Peptide-MHC monomers of the UV-exchange reaction were diluted 100 fold in blocking buffer. Samples were incubated for 1 h at 37° C., washed four times, incubated with 2 ug/ml HRP conjugated anti-β2m for 1h at 37° C., washed again and detected with TMB solution that is stopped with […]. Absorption was measured at 450 nm. Candidate peptides that show a high exchange yield (preferably higher than 50%, most preferred higher than 75%) are generally preferred for a generation and production of antibodies or fragments thereof, and/or T cell receptors or fragments thereof, as they show sufficient avidity to the MHC molecules and prevent dissociation of the MHC complexes.

In the case of “5 (LVWEVVESV; listed as Homo sapiens) [compound 5]”, the Peptide exchange result is “++++ (≥75% = ++++)”.

Consider “8 (ILQSLVPAA; listed as Homo sapiens) [compound 8]”, for which the Peptide exchange result is “++++ (≥75% = ++++)”.

In the case of “9 (FLQEGDLISV; listed as Homo sapiens) [compound 9]”, the Peptide exchange result was “++++ (≥75% = ++++)”.

“10 (SLLDKLSGI; listed as Homo sapiens) [compound 10]”: the Peptide exchange result was “++++ (≥75% = ++++)”.

On to “11 (ALLPHAPEAV; listed as Homo sapiens) [compound 11]”, for which the Peptide exchange entry is on record as “+++ (≥50 = +++)”.

Take “12 (HLDSMNVSI; listed as Homo sapiens) [compound 12]”: the Peptide exchange entry is listed as “++++ (≥75% = ++++)”.

As to “14 (LLIEVSEEL; listed as Homo sapiens) [compound 14]”, the Peptide exchange entry was “++++ (≥75% = ++++)”.

In the case of “15 (NLVMPLLHI; listed as Homo sapiens) [compound 15]”, the Peptide exchange entry is on record as “++ (≥20% = ++)”.

For “16 (ALLDAEQSPVAL; listed as Homo sapiens) [compound 16]”, the Peptide exchange result was “++++ (≥75% = ++++)”.

On to “17 (VLWDLRPSSLI; listed as Homo sapiens) [compound 17]”, for which the Peptide exchange entry is recorded as “++++ (≥75% = ++++)”.

Regarding “20 (VLISLPGKV; listed as Homo sapiens) [compound 20]”, the Peptide exchange result is reported as “++ (≥20% = ++)”.

Consider “21 (FVFISPSFL; listed as Homo sapiens) [compound 21]”, for which the Peptide exchange result is “+++ (≥50 = +++)”.

As to “22 (SLYDVPVGA; listed as Homo sapiens) [compound 22]”, the Peptide exchange entry is on record as “++++ (≥75% = ++++)”.

On to “23 (GLEVLDALL; listed as Homo sapiens) [compound 23]”, for which the Peptide exchange result is “++ (≥20% = ++)”.

Take “24 (TLTSLNILL; listed as Homo sapiens) [compound 24]”: the Peptide exchange result was “++++ (≥75% = ++++)”.

Regarding “25 (ISVLNLSAI; listed as Homo sapiens) [compound 25]”, the Peptide exchange entry was “++ (≥20% = ++)”.

In the case of “27 (IAAGVPNTDA; listed as Homo sapiens) [compound 27]”, the Peptide exchange result is given as “++ (≥20% = ++)”.

On to “28 (SQLEKPETA; listed as Homo sapiens) [compound 28]”, for which the Peptide exchange result is reported as “+++ (≥50 = +++)”.

For “30 (LLRLTLLPL; listed as Homo sapiens) [compound 30]”, the Peptide exchange entry is given as “++ (≥20% = ++)”.

Turning to “32 (VLSVSAVLGA; listed as Homo sapiens) [compound 32]”, the Peptide exchange entry is “+++ (≥50 = +++)”.

Consider “34 (LLNVEPAGA; listed as Homo sapiens) [compound 34]”, for which the Peptide exchange result is “++++ (≥75% = ++++)”.

“35 (VLLNSNYPV; listed as Homo sapiens) [compound 35]”: the Peptide exchange entry is listed as “++++ (≥75% = ++++)”.

As to “39 (YIYEDEVRL; listed as Homo sapiens) [compound 39]”, the Peptide exchange entry is listed as “++++ (≥75% = ++++)”.

Turning to “41 (LMASEGIWESSL; listed as Homo sapiens) [compound 41]”, the Peptide exchange entry is listed as “+++ (≥50 = +++)”.

With “42 (WITPVIPAL; listed as Homo sapiens) [compound 42]”, the Peptide exchange entry is given as “++++ (≥75% = ++++)”.

Consider “43 (AIWSTILIA; listed as Homo sapiens) [compound 43]”, for which the Peptide exchange result is given as “++ (≥20% = ++)”.

As for “44 (WLIPRQLAAA; listed as Homo sapiens) [compound 44]”, the Peptide exchange entry was “++++ (≥75% = ++++)”.

Regarding “45 (ALYHQSPLL; listed as Homo sapiens) [compound 45]”, the Peptide exchange entry was “++++ (≥75% = ++++)”.

As for “52 (LAFVSHVLI; listed as Homo sapiens) [compound 52]”, the Peptide exchange result is given as “++ (≥20% = ++)”.

Take “53 (TISISLSSV; listed as Homo sapiens) [compound 53]”: the Peptide exchange entry was “++++ (≥75% = ++++)”.

Take “54 (GLSPDQVFL; listed as Homo sapiens) [compound 54]”: the Peptide exchange result is “++++ (≥75% = ++++)”.

On to “55 (MVQQEKLFV; listed as Homo sapiens) [compound 55]”, for which the Peptide exchange result was “+++ (≥50 = +++)”.

Take “56 (IITNLIVNI; listed as Homo sapiens) [compound 56]”: the Peptide exchange entry is “+++ (≥50 = +++)”.

Regarding “57 (YVLMTSLLL; listed as Homo sapiens) [compound 57]”, the Peptide exchange result is given as “++++ (≥75% = ++++)”.

For “58 (MIISHRALEL; listed as Homo sapiens) [compound 58]”, the Peptide exchange entry is reported as “++ (≥20% = ++)”.

For “59 (LAASTTFLGV; listed as Homo sapiens) [compound 59]”, the Peptide exchange result was “++++ (≥75% = ++++)”.

On to “60 (LLLATLENL; listed as Homo sapiens) [compound 60]”, for which the Peptide exchange result is “++++ (≥75% = ++++)”.

Regarding “61 (VLPWQPLLL; listed as Homo sapiens) [compound 61]”, the Peptide exchange result is listed as “++ (≥20% = ++)”.

“62 (SLLGKPGLTI; listed as Homo sapiens) [compound 62]”: the Peptide exchange result is given as “++++ (≥75% = ++++)”.

As to “63 (LSFKRSLSI; listed as Homo sapiens) [compound 63]”, the Peptide exchange result was “++ (≥20% = ++)”.

Consider “64 (LLLALRLSL; listed as Homo sapiens) [compound 64]”, for which the Peptide exchange entry was “+ (≥10% = +)”.

For “66 (ILNELLNSI; listed as Homo sapiens) [compound 66]”, the Peptide exchange entry is given as “++++ (≥75% = ++++)”.

Consider “67 (ALKELMGPA; listed as Homo sapiens) [compound 67]”, for which the Peptide exchange entry is on record as “++ (≥20% = ++)”.

As for “69 (LLCPVVLQL; listed as Homo sapiens) [compound 69]”, the Peptide exchange entry was “++++ (≥75% = ++++)”.

“70 (LLLQIEPAA; listed as Homo sapiens) [compound 70]”: the Peptide exchange entry is given as “++++ (≥75% = ++++)”.

As to “71 (WLMPVMPAL; listed as Homo sapiens) [compound 71]”, the Peptide exchange result is reported as “++++ (≥75% = ++++)”.

For the substance “73 (STTIINLIL; listed as Homo sapiens) [compound 73]”, the Peptide exchange result is given as “++ (≥20% = ++)”.

Turning to “97 (GLIDDKGTIKL; listed as Homo sapiens) [compound 97]”, the Peptide exchange result is “++++ (≥75% = ++++)”.

“98 (SLMEVTHDL; listed as Homo sapiens) [compound 98]”: the Peptide exchange result is recorded as “++++ (≥75% = ++++)”.

Take “99 (ALMDGSESRFFV; listed as Homo sapiens) [compound 99]”: the Peptide exchange entry is “++++ (≥75% = ++++)”.

“100 (SLGPPPVGV; listed as Homo sapiens) [compound 100]”: the Peptide exchange entry is given as “++++ (≥75% = ++++)”.

Values taken from patent publication US11779606B2, “Peptides and combination of peptides of non-canonical origin for use in immunotherapy against different types of cancers” (Immatics Biotechnologies GmbH, priority 2018, dated 2023).
